This is an account of results in publication PMC9786777, “Phosphorylation of Thr9 Affects the Folding Landscape of the N-Terminal Segment of Human AGT Enhancing Protein Aggregation of Disease-Causing Mutants” (Molecules, 2022).

Data set [1] addresses alanine:glyoxylate aminotransferase (AGT) NTT, 1-21 (UniProt P21549). The data set is described as follows: NMR translational diffusion (DOSY), self-association. The following applies: sites T9.
Data set [2] deals with the molecule itself. The data set is described as follows: dynamic light scattering; holo-AGT as purified, 10 µM (in subunit), Na-HEPES 20 mM NaCl 200 mM pH 7.4, 25 °C; hydrodynamic radius compared with the dimer of the crystal structure.

With “alanine:glyoxylate aminotransferase (AGT) NTT, 1-21 (from UniProt P21549) NTT-AGT T9E peptide”, in data set [1] (reference: NTT-AGT WT peptide), the “other: hydrodynamic radius” value is “none in both; reference 12 ± 2”.

Turning to “alanine:glyoxylate aminotransferase (AGT) NTT, 1-21 (from UniProt P21549) NTT-AGT T9E-P11L peptide”, the “other: hydrodynamic radius” value in data set [1] (reference: NTT-AGT P11L peptide) is reported as “none in both; reference 12 ± 2”.

B1: alanine:glyoxylate aminotransferase (AGT) WT, holo-protein (enzyme, human, UniProt P21549 1-392, looked up)
chain: MASHKLLVTPPKALLKPLSIPNQLLLGPGPSNLPPRIMAAGGLQMIGSMSKDMYQIMDEIKEGIQYVFQTRNPLTLVISGSGHCALEAALVNVLEPGDSFLVGANGIWGQRAVDIGERIGARVHPMTKDPGGHYTLQEVEEGLAQHKPVLLFLTHGESSTGVLQPLDGFGELCHRYKCLLLVDSVASLGGTPLYMDRQGIDILYSGSQKALNAPPGTSLISFSDKAKKKMYSRKTKPFSFYLDIKWLANFWGCDDQPRMYHHTIPVISLYSLRESLALIAEQGLENSWRQHREAAAYLHGRLQALGLQLFVKDPALRLPTVTTVAVPAGYDWRDIVSYVIDHFDIEIMGGLGPSTGKVLRIGLLGCNATRENVDRVTEALRAALQHCPKKKL
modifications: PLP covalently bound to K209 (holo-protein)
notes: alanine:glyoxylate aminotransferase (AGT), human, 392 residues; also called holo-AGT
B1: in data set [2], the binding result is given as “binds”.

B2: AGT WT with the T9A mutation, holo-protein (enzyme, human, UniProt P21549 1-392, looked up)
chain: MASHKLLVAPPKALLKPLSIPNQLLLGPGPSNLPPRIMAAGGLQMIGSMSKDMYQIMDEIKEGIQYVFQTRNPLTLVISGSGHCALEAALVNVLEPGDSFLVGANGIWGQRAVDIGERIGARVHPMTKDPGGHYTLQEVEEGLAQHKPVLLFLTHGESSTGVLQPLDGFGELCHRYKCLLLVDSVASLGGTPLYMDRQGIDILYSGSQKALNAPPGTSLISFSDKAKKKMYSRKTKPFSFYLDIKWLANFWGCDDQPRMYHHTIPVISLYSLRESLALIAEQGLENSWRQHREAAAYLHGRLQALGLQLFVKDPALRLPTVTTVAVPAGYDWRDIVSYVIDHFDIEIMGGLGPSTGKVLRIGLLGCNATRENVDRVTEALRAALQHCPKKKL
modifications: PLP covalently bound to K209 (holo-protein)
notes: alanine:glyoxylate aminotransferase (AGT), human, 392 residues, control mutation T9A; also called T9A (WT background)
On to B2, for which the binding result in data set [2] is on record as “binds”.

B3: AGT WT with the T9E mutation, holo-protein (enzyme, human, UniProt P21549 1-392, looked up)
chain: MASHKLLVEPPKALLKPLSIPNQLLLGPGPSNLPPRIMAAGGLQMIGSMSKDMYQIMDEIKEGIQYVFQTRNPLTLVISGSGHCALEAALVNVLEPGDSFLVGANGIWGQRAVDIGERIGARVHPMTKDPGGHYTLQEVEEGLAQHKPVLLFLTHGESSTGVLQPLDGFGELCHRYKCLLLVDSVASLGGTPLYMDRQGIDILYSGSQKALNAPPGTSLISFSDKAKKKMYSRKTKPFSFYLDIKWLANFWGCDDQPRMYHHTIPVISLYSLRESLALIAEQGLENSWRQHREAAAYLHGRLQALGLQLFVKDPALRLPTVTTVAVPAGYDWRDIVSYVIDHFDIEIMGGLGPSTGKVLRIGLLGCNATRENVDRVTEALRAALQHCPKKKL
modifications: PLP covalently bound to K209 (holo-protein)
notes: alanine:glyoxylate aminotransferase (AGT), human, 392 residues, phosphomimetic T9E; also called T9E (WT background)
With B3, in data set [2], the binding result is “binds”.
